Reference: article PMC5625722

Target: Proliferating cell nuclear antigen (PCNA), wild type (UniProt P15873)
Experiment: MST; fluorescently labeled PCNA (22 nM, RED-NHS) constant, Mus81 (1-319) fragment 1.3-5500 nM; T buffer with 0.05% Tween-20 and 150 mM KCl; 25 °C; Monolith NT.115; apparent Kd

Binder | Kd
N-terminal fragment of Mus81 (1-319) (domain or fragment) MELSSNLKDLYIEWLQELVDGLTPKQEQLKIAYEKAKRNLQNAEGSFYYPTDLKKVKGIGNTIIKRLDTKLRNYCKIHHISPVEAPSLTQTSSTRPPKRTTTALRSIVNSCENDKNEAPEEKGTKKRKTRKYIPKKRSGGYAILLSLLELNAIPRGVSKEQIIEVAGKYSDHCMTPNFSTKEFYGAWSSIAALKKHSLVLEEGRPKRYSLTEEGVELTKSLKTADGISFPKENEEPNEYSVTRNESSEFTANLTDLRGEYGKEEEPCDINNTSFMLDITFQDLSTPQRLQNNVFKNDRLNSQTNISSHKLEEVSDDQTV | 0.253 µM
Mus81 (1-319) E44Q mutant (domain or fragment) MELSSNLKDLYIEWLQELVDGLTPKQEQLKIAYEKAKRNLQNAQGSFYYPTDLKKVKGIGNTIIKRLDTKLRNYCKIHHISPVEAPSLTQTSSTRPPKRTTTALRSIVNSCENDKNEAPEEKGTKKRKTRKYIPKKRSGGYAILLSLLELNAIPRGVSKEQIIEVAGKYSDHCMTPNFSTKEFYGAWSSIAALKKHSLVLEEGRPKRYSLTEEGVELTKSLKTADGISFPKENEEPNEYSVTRNESSEFTANLTDLRGEYGKEEEPCDINNTSFMLDITFQDLSTPQRLQNNVFKNDRLNSQTNISSHKLEEVSDDQTV | 20.5 µM
